# Key:
# [1] = system: AncSZ; assay: phosphorylation enrichment, bacterial display (enrichment ratio); higher = better substrate or ligand; peptides without Tyr show the background
# [2] = target: EPHB1 (UniProt P54762); assay: as above
# [3] = target: EPHB2 (UniProt P29323); assay: as above
# [4] = target: FGFR1 (UniProt P11362); assay: as above
# [5] = target: FGFR3 (UniProt P22607); assay: as above
# [6] = system: Fer (mouse); assay: as above
# [7] = target: Fes (UniProt P07332); assay: as above
# Sequence of Fes (P07332 whole entry, looked up): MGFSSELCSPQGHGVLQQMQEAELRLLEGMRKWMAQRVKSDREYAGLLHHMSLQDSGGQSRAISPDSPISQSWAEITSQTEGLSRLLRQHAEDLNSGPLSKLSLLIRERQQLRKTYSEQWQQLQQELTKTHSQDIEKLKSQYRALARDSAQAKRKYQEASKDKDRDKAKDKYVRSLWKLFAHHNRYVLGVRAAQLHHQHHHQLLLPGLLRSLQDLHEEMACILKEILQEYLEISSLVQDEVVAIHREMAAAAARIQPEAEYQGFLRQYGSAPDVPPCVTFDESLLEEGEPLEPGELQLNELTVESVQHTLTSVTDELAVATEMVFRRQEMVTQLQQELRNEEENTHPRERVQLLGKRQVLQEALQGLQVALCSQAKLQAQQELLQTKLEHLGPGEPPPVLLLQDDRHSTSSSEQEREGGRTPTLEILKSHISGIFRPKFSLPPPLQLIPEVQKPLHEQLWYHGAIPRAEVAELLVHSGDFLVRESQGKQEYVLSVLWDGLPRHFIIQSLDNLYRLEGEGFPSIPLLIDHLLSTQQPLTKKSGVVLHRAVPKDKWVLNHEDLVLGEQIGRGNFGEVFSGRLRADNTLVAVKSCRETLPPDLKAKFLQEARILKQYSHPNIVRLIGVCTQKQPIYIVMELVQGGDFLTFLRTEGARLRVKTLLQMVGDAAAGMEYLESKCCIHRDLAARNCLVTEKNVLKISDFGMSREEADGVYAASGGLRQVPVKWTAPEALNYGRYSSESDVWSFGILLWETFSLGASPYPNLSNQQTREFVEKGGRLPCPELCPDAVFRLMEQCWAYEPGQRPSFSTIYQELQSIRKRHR
# [8] = target: Fyn (UniProt P06241); assay: as above
# [9] = target: Hck (UniProt P08631); assay: as above
# [10] = target: Jak2 (UniProt O60674); assay: as above
# Sequence of Jak2 (O60674 whole entry, looked up): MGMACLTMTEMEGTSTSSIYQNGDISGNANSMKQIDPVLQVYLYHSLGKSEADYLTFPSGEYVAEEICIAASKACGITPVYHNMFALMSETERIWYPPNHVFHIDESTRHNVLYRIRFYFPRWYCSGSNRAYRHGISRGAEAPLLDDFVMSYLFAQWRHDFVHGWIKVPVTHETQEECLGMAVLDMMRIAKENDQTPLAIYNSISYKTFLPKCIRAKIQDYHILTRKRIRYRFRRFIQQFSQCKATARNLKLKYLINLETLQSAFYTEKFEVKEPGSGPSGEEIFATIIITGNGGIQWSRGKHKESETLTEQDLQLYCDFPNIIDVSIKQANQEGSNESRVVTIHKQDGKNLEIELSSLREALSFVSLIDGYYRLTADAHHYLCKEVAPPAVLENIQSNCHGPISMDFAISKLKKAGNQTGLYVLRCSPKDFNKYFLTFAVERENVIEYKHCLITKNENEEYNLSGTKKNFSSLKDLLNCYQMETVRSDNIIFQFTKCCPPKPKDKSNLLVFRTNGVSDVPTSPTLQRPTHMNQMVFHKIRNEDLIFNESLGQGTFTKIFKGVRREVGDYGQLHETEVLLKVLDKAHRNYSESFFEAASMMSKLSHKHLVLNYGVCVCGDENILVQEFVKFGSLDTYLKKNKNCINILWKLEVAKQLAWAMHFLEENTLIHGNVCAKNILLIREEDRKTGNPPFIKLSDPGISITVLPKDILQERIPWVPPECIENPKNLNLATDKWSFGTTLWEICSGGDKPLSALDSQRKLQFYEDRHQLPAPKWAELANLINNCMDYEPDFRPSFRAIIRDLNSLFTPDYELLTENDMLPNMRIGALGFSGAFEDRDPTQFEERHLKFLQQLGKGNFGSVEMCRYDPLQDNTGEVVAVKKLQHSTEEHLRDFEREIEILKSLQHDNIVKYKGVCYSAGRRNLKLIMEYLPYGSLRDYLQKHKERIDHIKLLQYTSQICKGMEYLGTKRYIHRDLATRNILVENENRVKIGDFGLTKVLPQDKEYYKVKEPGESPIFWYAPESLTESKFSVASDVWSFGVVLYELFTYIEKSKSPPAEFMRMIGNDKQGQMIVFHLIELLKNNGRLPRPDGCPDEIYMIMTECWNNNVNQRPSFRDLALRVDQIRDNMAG
# [11] = target: MERTK (UniProt Q12866); assay: as above
# [12] = system: c-Abl (mouse); assay: as above
# [13] = system: c-Src; assay: as above
# [14] = target: Grb2 SH2 (UniProt P62993); assay: SH2 binding enrichment of the phosphorylated peptide, bacterial display (enrichment ratio); higher = better substrate or ligand; peptides without Tyr show the background
# [15] = target: SHP2-C SH2; assay: as above
# [16] = target: c-Src SH2; assay: as above
# 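Wherever SH2 binding enrichment of the phosphorylated peptide, bacterial display is given: peptide library displayed on the E. coli surface as eCPX fusions, selected cells deep-sequenced, score is each peptide's frequency after selection divided by its frequency in the input.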
# 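Wherever phosphorylation enrichment, bacterial display is given: 11-residue human phosphosite peptides and single-mutation variants displayed on the E. coli surface, counted by deep sequencing, each peptide's frequency after selection divided by its frequency in the unselected input library; frequency after pTyr selection over input frequency; kinase dosed for 20-30% of maximal phosphorylation in three min.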
# Sequence of FGFR1 (P11362 whole entry, looked up): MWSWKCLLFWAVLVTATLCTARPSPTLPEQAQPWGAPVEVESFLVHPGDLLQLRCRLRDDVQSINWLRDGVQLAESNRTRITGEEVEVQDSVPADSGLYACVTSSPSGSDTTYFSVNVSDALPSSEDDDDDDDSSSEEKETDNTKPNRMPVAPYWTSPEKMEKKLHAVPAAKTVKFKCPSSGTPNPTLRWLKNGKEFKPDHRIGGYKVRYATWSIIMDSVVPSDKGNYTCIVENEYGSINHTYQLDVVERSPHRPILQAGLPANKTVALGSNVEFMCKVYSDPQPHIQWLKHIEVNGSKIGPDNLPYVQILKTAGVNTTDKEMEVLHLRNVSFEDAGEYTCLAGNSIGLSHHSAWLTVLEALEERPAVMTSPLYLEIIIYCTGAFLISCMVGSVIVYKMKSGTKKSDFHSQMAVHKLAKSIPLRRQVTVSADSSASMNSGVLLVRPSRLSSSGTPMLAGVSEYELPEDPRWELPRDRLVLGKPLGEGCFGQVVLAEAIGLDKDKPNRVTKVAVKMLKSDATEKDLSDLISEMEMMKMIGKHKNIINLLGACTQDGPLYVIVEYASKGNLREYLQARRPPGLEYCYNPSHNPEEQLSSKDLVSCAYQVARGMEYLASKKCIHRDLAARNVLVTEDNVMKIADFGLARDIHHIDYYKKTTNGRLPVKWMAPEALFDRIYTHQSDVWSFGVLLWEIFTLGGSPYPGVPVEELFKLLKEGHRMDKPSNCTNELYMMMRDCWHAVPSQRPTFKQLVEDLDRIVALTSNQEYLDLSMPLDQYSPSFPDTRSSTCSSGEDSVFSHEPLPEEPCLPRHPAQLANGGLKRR
# Sequence of EPHB1 (P54762 whole entry, looked up): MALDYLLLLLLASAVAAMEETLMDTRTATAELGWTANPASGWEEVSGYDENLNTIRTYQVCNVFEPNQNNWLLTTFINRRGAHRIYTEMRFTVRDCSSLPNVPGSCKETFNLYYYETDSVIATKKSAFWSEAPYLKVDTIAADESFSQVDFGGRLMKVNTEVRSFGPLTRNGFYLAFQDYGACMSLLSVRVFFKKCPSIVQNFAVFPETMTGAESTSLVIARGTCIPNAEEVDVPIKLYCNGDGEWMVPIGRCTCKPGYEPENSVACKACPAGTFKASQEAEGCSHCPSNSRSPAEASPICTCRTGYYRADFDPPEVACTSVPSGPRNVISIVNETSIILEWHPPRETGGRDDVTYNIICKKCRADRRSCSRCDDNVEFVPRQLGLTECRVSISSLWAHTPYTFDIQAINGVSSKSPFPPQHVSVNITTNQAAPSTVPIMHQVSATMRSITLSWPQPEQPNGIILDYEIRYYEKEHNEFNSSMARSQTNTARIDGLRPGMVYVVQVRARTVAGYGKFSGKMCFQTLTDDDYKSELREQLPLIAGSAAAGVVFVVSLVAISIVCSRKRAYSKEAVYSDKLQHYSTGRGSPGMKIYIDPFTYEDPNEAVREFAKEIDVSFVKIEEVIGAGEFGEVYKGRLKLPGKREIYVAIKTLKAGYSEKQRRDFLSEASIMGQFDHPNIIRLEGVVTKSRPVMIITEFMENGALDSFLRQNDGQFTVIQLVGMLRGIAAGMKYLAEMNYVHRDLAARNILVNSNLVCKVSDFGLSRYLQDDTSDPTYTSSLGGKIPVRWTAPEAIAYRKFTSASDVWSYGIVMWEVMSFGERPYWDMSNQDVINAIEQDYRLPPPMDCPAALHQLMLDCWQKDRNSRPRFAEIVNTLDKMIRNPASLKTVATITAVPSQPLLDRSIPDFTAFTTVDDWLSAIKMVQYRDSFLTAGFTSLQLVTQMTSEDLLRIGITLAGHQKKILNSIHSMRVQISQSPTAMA
# Sequence of EPHB2 (P29323 whole entry, looked up): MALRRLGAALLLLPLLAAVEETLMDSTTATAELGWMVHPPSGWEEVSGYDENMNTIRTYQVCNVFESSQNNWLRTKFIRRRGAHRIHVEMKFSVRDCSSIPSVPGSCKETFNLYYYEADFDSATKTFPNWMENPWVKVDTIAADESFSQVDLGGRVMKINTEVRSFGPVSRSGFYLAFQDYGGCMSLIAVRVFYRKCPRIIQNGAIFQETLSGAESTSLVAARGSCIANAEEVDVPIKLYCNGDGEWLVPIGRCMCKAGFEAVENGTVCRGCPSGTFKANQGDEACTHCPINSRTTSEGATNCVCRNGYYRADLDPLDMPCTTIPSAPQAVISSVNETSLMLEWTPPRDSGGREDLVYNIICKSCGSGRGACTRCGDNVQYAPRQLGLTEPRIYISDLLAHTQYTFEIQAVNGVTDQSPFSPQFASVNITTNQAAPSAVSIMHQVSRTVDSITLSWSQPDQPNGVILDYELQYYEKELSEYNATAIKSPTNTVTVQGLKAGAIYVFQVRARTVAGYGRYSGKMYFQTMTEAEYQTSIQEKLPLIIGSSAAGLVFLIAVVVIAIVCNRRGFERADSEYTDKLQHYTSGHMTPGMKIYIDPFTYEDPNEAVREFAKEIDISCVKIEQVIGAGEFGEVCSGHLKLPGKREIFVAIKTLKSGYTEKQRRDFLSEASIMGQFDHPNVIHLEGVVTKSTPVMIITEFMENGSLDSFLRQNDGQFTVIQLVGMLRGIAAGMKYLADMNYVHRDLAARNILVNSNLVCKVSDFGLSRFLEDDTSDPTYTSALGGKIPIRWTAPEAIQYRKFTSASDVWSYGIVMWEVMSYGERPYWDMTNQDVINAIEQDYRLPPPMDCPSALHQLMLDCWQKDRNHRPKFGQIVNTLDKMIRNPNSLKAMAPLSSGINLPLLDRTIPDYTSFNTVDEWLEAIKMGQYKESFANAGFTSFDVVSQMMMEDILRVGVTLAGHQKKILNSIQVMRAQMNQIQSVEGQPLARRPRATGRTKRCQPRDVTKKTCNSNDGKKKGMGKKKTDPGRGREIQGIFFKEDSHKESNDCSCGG
Sequence,SH2 binding enrichment [14],SH2 binding enrichment [15],SH2 binding enrichment [16],phosphorylation enrichment [1],phosphorylation enrichment [2],phosphorylation enrichment [3],phosphorylation enrichment [4],phosphorylation enrichment [5],phosphorylation enrichment [6],phosphorylation enrichment [7],phosphorylation enrichment [8],phosphorylation enrichment [9],phosphorylation enrichment [10],phosphorylation enrichment [11],phosphorylation enrichment [12],phosphorylation enrichment [13]
FFCKFYNKSED [RYR1_Y4864_R4861C],0.433,0.586,0.42,1.3,0.712,0.601,0.536,0.939,0.598,1.74,0.426,0.552,1.62,0.395,1.09,0.489
KRTFEYEAEKN [DENND2B_Y396_D399E],1.06,0.703,0.535,0.771,0.43,0.431,0.511,0.527,0.436,0.769,0.501,0.463,0.798,0.505,0.675,0.518
SRNSKYNAEST [PSEN1_Y315_K311R],0.774,0.522,0.386,0.512,0.328,0.46,0.378,0.376,0.347,0.441,0.366,0.323,0.489,0.464,0.497,0.378
LFMGDYVDRGY [PPP2CA_Y86],0.696,0.927,0.711,1.6,0.983,0.977,1.46,1.02,0.612,1.47,0.699,1.01,1.41,0.701,0.982,0.8
MAFDRYVAICA [OR52J3_Y125_V128I],1.08,0.635,0.974,0.939,1.12,0.659,0.586,0.708,0.562,0.808,0.454,0.555,0.726,0.386,0.362,0.394
LFPANYVAPMT [GRAP2_Y324],0.828,0.835,0.663,0.827,3.55,1.31,0.535,0.617,0.418,0.91,0.446,0.551,0.649,0.551,0.713,0.397
ADRNHYRRFRR [YBX1_Y145_P149R_YF],0.669,0.659,0.428,0.564,0.462,0.447,0.509,0.721,0.435,0.561,0.57,0.544,0.579,0.672,0.507,0.548
LNPFIYSLRNR [OR1A1_Y288],0.873,1.55,0.486,1.46,0.437,0.618,0.891,0.579,0.6,1.55,0.657,1.28,1.43,0.493,0.974,2.23
SHNELYYEAAE [VANGL1_Y344_E347A],0.726,0.922,1.4,1.6,1,0.737,2.63,2.54,3.52,1.12,0.986,1.1,1.18,1.9,0.801,1.17
DFPMGYPSFLA [TBCK_Y153_I151M_YF],0.672,0.523,0.354,0.64,0.496,0.469,0.424,0.49,0.432,0.832,0.424,0.358,0.691,0.429,0.592,0.428
FGGTVCHSPVS [PRC1_Y511_Y511C],0.756,0.508,0.596,0.688,0.38,0.493,0.524,0.524,0.452,0.627,0.447,0.505,0.506,0.456,0.548,0.576
APTSGYREFVH [IL4R_Y575_Q576R],0.882,0.561,0.518,0.681,0.378,0.342,0.462,0.474,0.485,0.561,0.422,0.379,0.441,0.483,0.508,0.397
GHNDVYISKHV [GRIN2A_Y1423_E1426K],0.79,0.651,0.395,0.373,0.254,0.333,0.323,0.364,0.313,0.536,0.423,0.412,0.391,0.347,0.376,0.352
FTDGQYWIRGR [ACSF3_Y466_K462T],0.648,0.489,0.358,1.02,0.509,0.463,0.425,0.555,0.408,0.992,0.422,1.03,0.818,0.521,0.611,0.588
HNLDYYKETTN [FGFR3_Y648_K650E],1.24,0.874,0.732,1.25,0.633,0.857,2.08,2.12,0.766,1.06,0.597,0.734,1.01,0.553,0.788,0.47
ALLTKYSRSSM [DSCC1_Y374_H376R],0.847,0.615,0.589,0.617,0.505,0.535,0.579,0.554,0.442,0.744,0.465,0.384,0.816,0.552,0.697,0.524
RLMLQYDAVVN [SLC25A32_Y152],1.02,0.863,1.88,1.32,0.733,0.703,0.47,0.674,0.662,1.67,0.57,0.702,1.13,0.414,0.685,0.406
QADIIYVNTQL [MERTK_Y872_V870I],0.916,0.543,0.475,1.28,1.18,0.518,0.712,0.84,4.18,1.29,1.09,0.886,1.05,0.571,1.02,1.24

# Further lines, with some results ahead:
SH2 binding enrichment [14],SH2 binding enrichment [15],SH2 binding enrichment [16],Sequence,phosphorylation enrichment [1],phosphorylation enrichment [2],phosphorylation enrichment [3],phosphorylation enrichment [4],phosphorylation enrichment [5],phosphorylation enrichment [6],phosphorylation enrichment [7],phosphorylation enrichment [8],phosphorylation enrichment [9],phosphorylation enrichment [10],phosphorylation enrichment [11],phosphorylation enrichment [12],phosphorylation enrichment [13]
0.757,0.665,0.909,YAGRDYSLDEF [MYOF_Y1705_G1701A],1.06,0.658,0.536,0.54,0.686,0.588,1.14,0.595,0.549,1.37,0.52,0.928,0.878
1.01,0.582,0.595,LKGQVDILGRE [ASS1_Y359_Y359D],0.803,0.539,0.696,0.578,0.638,0.598,1.07,0.559,0.575,1.26,0.663,0.658,0.764
1.09,0.788,0.658,DDERGYRRVRC [GIGYF2_Y268_S273C],0.75,0.519,0.551,0.533,0.562,0.513,0.882,0.529,0.483,0.834,0.438,0.647,0.426
0.712,0.464,0.351,MKGEFYRFLAE [YWHAG_Y131_D129E_YF],0.77,0.426,0.455,0.336,0.529,0.4,0.902,0.392,0.414,0.907,0.372,0.627,0.382
1.69,1.45,1.13,IHFAIYLLKFS [ARMC9_Y107_YF],0.891,0.561,0.457,0.363,0.684,0.303,1.06,0.458,0.521,1.03,0.414,0.668,0.499
0.862,3.12,0.727,VYLGAYDRFLP [SLC22A5_Y486],1.25,1.82,2.53,0.948,0.803,1.88,0.992,4.5,5.32,0.74,4.72,1.2,4.49
0.844,0.524,0.553,LFSGDCFRIQG [DDR2_Y740_Y740C_YF],0.931,0.554,0.602,0.516,0.693,0.468,1.15,0.472,0.486,0.764,0.425,0.84,0.459
0.961,1.03,0.685,AKIDGYIISYR,1.15,0.678,0.657,0.607,0.684,0.566,1.39,0.37,0.604,0.966,0.46,0.755,0.568
0.831,0.545,0.543,MKALGYFAVGT [OPA1_Y498_V502G],0.798,0.469,0.486,0.479,0.64,0.395,0.973,0.432,0.489,1.92,0.355,0.7,0.487
1.02,0.712,0.532,SGEKPYKCSVC [ZNF543_Y283_E287V],0.495,0.261,0.298,0.342,0.355,0.398,0.524,0.373,0.255,0.434,0.416,0.493,0.365
0.534,0.54,0.515,TTASRYLKVSD [MYOM2_Y871_N869S],0.489,0.347,0.293,0.366,0.467,0.377,0.636,0.373,0.311,0.434,0.313,0.54,0.362
0.714,0.734,0.496,PTTKTYFPHFA [HBA1_Y43_D48A],0.796,0.572,0.386,0.313,0.599,0.384,0.724,0.798,0.754,0.469,0.675,0.646,0.781
0.967,0.825,0.974,NHFKIYNLCAE [PTEN_Y68_YF],0.882,0.412,0.516,0.676,0.647,0.535,0.766,2.61,1.12,0.577,0.584,0.52,3.12
0.83,0.73,0.444,SIVEDYRPPFF [ACVRL1_Y421_G416S_YF],1.01,0.578,0.46,0.435,0.646,0.485,1.01,0.378,0.38,0.85,0.473,0.821,0.45
0.755,0.7,0.362,HAEERYGKELV [PSTPIP1_Y53_Q48H],1.26,0.881,0.806,1.09,1.02,0.732,1.26,0.614,1.02,1.06,0.382,0.688,0.569
